The text below walks through data of patent publication US20220177875.

Data set [1] deals with T1, T4 DNA ligase (Enterobacteria phage T4?) (UniProt P00970).
T1 sequence: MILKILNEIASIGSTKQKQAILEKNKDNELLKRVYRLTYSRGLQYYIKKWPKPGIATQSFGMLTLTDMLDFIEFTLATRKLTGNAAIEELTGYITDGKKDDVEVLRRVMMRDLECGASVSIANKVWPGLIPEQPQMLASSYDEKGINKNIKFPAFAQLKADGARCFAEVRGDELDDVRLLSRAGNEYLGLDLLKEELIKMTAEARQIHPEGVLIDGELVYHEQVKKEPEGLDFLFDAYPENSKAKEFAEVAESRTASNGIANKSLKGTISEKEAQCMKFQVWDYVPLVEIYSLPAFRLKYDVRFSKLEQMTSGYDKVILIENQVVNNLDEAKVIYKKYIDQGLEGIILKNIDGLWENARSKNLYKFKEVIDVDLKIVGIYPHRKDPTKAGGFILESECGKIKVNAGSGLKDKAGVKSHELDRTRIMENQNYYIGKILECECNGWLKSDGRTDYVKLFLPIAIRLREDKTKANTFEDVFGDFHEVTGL

Data set [2] deals with T2, T3 DNA ligase (Enterobacteria phage T3?) (UniProt P07717).
T2 sequence: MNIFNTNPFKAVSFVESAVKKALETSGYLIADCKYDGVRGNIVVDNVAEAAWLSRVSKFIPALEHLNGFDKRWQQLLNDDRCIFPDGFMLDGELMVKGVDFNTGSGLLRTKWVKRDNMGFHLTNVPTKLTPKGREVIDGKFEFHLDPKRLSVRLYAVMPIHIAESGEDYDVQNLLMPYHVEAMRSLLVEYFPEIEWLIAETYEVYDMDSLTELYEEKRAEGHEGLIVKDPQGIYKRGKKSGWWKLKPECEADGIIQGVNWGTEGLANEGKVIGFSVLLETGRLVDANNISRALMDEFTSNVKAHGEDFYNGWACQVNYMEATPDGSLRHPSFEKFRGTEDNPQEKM
As to conditions: T4 ligase buffer, 25 C 1 h.

Data set [3] addresses T3, PBCV-1 DNA ligase (Paramecium bursaria Chlorella virus 1?) (UniProt O41026).
T3 sequence: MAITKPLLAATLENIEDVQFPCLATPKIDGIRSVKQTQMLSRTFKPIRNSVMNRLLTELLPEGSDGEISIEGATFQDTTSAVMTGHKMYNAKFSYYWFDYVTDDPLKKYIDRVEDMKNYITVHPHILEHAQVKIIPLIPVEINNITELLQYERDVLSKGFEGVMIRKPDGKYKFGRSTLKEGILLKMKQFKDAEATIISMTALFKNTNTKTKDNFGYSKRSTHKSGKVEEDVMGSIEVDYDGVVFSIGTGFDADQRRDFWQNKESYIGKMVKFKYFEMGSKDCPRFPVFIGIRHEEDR
As to conditions: T4 ligase buffer, 25 C 1 h; library yield 50%.

In data set [4] the test system is T4, Human DNA ligase 3 (hLig3 beta) (Homo sapiens), P49916-4.
T4 sequence: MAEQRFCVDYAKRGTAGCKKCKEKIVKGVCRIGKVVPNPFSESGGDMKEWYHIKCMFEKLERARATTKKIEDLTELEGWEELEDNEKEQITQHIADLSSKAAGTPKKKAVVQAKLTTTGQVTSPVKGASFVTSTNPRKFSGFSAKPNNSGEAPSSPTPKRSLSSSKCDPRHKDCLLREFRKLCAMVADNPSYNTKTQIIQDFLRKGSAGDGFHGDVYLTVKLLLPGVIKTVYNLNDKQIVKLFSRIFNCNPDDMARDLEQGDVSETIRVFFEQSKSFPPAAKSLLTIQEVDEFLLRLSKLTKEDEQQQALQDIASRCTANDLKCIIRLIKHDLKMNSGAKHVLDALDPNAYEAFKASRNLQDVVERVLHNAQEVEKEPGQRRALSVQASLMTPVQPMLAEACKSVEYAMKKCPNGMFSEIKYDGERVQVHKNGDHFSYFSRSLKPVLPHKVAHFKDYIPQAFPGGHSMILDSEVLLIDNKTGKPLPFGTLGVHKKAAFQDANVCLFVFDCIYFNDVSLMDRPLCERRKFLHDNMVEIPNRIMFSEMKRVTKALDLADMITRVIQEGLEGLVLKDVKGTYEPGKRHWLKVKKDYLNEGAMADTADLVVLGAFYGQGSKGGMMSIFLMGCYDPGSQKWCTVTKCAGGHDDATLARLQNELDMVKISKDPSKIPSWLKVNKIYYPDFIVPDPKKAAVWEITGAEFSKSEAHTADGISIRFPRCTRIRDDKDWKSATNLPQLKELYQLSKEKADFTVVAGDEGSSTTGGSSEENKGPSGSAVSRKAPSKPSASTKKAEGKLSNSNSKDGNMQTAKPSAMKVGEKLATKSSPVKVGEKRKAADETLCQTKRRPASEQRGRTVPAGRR

The target of data set [5] is T5, T7 DNA ligase (Enterobacteria phage T7?) (UniProt P00969).
T5 sequence: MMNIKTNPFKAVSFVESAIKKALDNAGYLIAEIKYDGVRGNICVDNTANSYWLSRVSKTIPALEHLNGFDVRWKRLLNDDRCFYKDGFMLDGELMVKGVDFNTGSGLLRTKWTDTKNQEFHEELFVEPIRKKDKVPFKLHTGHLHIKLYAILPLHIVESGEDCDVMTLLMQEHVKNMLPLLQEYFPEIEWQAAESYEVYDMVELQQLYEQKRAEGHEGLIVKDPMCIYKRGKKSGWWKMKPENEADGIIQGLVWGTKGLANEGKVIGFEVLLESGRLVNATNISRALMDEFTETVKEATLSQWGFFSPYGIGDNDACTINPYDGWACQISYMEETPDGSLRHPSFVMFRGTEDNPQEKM

Like-named read-outs stand apart in the source and are kept apart here.

As for “NNNN [randomized four-base 5' overhang hairpin library]”, the activity (% ligation fidelity) in data set [1] (SMRT sequencing, T4 ligase buffer, 10 mM MgCl2, 1 mM ATP, 25 C 1 h) amounted to 72.4; in data set [1] (with 6% PEG 6000), 66.9; in data set [2], 59.2; in data set [3] it was 77.2; in data set [4] (T4 ligase buffer, 25 C 1 h, text p210 prints 56%) it was 44; in data set [4] (with 6% PEG 6000), 49.7. Moreover, the activity (% ligation fidelity) in data set [5] (T4 ligase buffer, 25 C 1 h, library yield 20%) is 88.8; in data set [5] (with 6% PEG 6000) it was 77.9.
